Measurements published in patent publication US20120121587A1 (Chugai, published 2012).
Numbering of substitutions follows the chain as printed.

B1: H9/L1 (antibody, human IgG1, kappa)
heavy: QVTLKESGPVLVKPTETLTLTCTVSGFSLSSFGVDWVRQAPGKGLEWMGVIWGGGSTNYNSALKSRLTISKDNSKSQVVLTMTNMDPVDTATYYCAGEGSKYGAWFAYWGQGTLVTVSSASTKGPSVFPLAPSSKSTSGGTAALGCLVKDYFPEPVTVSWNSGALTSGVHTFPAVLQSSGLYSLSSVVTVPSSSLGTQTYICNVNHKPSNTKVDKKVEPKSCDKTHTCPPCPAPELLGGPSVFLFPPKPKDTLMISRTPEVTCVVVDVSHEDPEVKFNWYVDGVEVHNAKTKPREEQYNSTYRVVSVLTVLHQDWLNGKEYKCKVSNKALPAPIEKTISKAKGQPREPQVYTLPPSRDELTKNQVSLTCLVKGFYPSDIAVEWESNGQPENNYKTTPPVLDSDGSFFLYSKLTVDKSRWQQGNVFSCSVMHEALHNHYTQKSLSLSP
light: DVVMTQSPLSLPVTLGQPASISCQSSQNIVHTNGNTYLEWYQQKPGKAPELLIYKVSNRFSGVPDRFSGSGSGTDFTLKISRVEAEDVGVYYCFQGSHIPFTFGQGTKLEIKRTVAAPSVFIFPPSDEQLKSGTASVVCLLNNFYPREAKVQWKVDNALQSGNSQESVTEQDSKDSTYSLSSTLTLSKADYEKHKVYACEVTHQGLSSPVTKSFNRGEC
B2: H9/L3 (antibody, human IgG1, kappa, V domains shown)
VH: QVTLKESGPVLVKPTETLTLTCTVSGFSLSSFGVDWVRQAPGKGLEWMGVIWGGGSTNYNSALKSRLTISKDNSKSQVVLTMTNMDPVDTATYYCAGEGSKYGAWFAYWGQGTLVTVSS
VL: DVVMTQSPLSLPVTLGQPASISCQSSENIVHTNGNTYLEWYQQKPGKAPELLIYKVSNRFSGVPDRFSGSGSGTDFTLKISRVEAEDVGVYYCFQGSHIPFTFGQGTKLEIKR
B3: H26/L13 (antibody, human IgG1, kappa)
heavy: not shown
light: B1 light with K47Q, L109V, K112E
B4: H27/L0 (antibody, human IgG1, kappa, V domains shown)
VH: B2 VH with A62E, K64Q, S65D
VL: B2 VL with Q24R, E27Q
B5: H18/L0 (antibody, human IgG1, kappa, V domains shown)
VH: B2 VH with S31E
VL: B2 VL with Q24R, E27Q
B6: H9/L25 (antibody, human IgG1, kappa)
heavy: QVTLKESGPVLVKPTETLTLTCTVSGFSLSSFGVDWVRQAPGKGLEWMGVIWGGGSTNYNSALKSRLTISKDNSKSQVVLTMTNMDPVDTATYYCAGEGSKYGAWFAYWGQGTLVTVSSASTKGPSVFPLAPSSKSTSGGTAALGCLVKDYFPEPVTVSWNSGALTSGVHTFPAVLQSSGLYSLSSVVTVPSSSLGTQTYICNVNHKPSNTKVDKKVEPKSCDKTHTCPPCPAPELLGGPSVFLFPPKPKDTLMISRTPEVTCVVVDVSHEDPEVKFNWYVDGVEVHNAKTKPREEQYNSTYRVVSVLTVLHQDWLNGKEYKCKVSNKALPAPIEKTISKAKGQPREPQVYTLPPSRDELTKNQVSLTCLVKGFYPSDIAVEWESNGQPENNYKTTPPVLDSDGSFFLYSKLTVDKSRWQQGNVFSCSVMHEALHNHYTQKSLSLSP
light: B1 light with Q17R, Q24R
B7: H9/L5 (antibody, human IgG1, kappa, V domains shown)
VH: B2 VH
VL: B2 VL with Q24R, E27Q, K47Q
B8: H20/L0 (antibody, human IgG1, kappa, V domains shown)
VH: B2 VH with A40P, K43E, M48I
VL: B2 VL with Q24R, E27Q
B9: H9/L31 (antibody, human IgG1, kappa)
heavy: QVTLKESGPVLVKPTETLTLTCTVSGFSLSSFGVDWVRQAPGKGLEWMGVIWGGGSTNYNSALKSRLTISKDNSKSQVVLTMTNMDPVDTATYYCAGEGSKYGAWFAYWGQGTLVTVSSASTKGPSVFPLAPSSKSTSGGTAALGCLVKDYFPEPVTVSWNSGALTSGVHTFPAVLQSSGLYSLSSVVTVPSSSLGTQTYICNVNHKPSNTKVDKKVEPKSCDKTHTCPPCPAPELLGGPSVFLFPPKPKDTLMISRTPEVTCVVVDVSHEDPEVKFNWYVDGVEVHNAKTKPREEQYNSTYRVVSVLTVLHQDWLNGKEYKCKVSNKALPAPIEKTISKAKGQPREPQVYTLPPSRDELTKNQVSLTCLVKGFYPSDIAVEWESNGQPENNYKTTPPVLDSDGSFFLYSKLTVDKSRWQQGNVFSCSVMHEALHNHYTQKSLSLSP
light: B1 light with Q24R, Q27R, E50K
B10: H9/L34 (antibody, human IgG1, kappa)
heavy: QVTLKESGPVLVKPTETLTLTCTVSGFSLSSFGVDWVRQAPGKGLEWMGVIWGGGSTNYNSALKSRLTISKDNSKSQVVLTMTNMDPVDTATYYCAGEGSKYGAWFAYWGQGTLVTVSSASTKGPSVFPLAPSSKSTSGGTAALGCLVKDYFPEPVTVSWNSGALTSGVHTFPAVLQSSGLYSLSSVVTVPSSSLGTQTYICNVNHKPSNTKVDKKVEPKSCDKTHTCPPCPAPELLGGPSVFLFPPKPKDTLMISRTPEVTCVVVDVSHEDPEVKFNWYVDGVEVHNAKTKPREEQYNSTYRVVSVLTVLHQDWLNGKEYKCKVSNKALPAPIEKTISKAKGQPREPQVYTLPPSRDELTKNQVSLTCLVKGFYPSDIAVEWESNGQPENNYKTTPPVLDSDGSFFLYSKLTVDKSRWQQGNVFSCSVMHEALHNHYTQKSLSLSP
light: B1 light with Q17R, Q24R, Q27R, E50K
B11: H9/L37 (antibody, human IgG1, kappa)
heavy: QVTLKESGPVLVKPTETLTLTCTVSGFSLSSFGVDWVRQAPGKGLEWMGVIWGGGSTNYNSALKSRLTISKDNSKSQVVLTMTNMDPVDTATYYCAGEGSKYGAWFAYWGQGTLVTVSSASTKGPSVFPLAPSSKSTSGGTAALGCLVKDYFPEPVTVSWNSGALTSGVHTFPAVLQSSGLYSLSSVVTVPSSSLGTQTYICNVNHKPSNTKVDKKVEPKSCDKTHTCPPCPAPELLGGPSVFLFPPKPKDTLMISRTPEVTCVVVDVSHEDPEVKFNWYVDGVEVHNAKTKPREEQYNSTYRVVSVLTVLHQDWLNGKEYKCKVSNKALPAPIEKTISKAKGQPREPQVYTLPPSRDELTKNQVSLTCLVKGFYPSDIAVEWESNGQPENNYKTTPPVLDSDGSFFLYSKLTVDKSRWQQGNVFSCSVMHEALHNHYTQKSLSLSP
light: B1 light with Q17R, Q24R, Q27R, E50K, Q105R
B12: H26/L11 (antibody, human IgG1, kappa)
heavy: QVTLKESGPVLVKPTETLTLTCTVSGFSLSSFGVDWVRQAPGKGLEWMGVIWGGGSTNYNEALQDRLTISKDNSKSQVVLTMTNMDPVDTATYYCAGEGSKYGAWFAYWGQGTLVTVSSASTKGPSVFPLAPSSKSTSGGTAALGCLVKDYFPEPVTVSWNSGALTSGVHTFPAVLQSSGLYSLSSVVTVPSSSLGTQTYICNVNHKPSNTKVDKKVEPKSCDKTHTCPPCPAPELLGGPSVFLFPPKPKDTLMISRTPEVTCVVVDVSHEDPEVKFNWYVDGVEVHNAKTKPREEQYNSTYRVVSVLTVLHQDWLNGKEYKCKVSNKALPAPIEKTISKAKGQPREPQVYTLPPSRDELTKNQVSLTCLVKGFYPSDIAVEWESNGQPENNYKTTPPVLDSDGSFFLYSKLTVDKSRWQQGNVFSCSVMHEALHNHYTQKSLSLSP
light: B1 light with L109V, K112E
B13: H9/L11 (antibody, human IgG1, kappa)
heavy: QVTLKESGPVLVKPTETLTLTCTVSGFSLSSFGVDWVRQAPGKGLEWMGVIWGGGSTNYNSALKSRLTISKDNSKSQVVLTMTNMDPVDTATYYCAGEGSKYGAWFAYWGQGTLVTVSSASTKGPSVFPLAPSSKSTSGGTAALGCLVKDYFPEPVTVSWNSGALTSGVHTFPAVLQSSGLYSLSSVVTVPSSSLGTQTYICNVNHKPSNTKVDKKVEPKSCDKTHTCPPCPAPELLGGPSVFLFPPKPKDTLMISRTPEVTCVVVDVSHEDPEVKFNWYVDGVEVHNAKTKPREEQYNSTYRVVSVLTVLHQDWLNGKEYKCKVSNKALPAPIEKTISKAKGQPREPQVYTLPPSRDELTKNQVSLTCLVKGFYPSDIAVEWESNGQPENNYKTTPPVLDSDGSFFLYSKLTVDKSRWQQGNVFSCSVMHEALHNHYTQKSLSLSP
light: B1 light with L109V, K112E
B14: H17/L0 (antibody, human IgG1, kappa, V domains shown)
VH: B2 VH with S31D
VL: B2 VL with Q24R, E27Q
B15: H22/L0 (antibody, human IgG1, kappa, V domains shown)
VH: B2 VH with A62E
VL: B2 VL with Q24R, E27Q
B16: H26/L10 (antibody, human IgG1, kappa)
heavy: not shown
light: B1 light with Q24R, L109V, K112E
B17: H9/L4 (antibody, human IgG1, kappa, V domains shown)
VH: B2 VH
VL: B2 VL with Q24R, E27Q, K47E
B18: H9/L28 (antibody, human IgG1, kappa, V domains shown)
VH: B2 VH
VL: B2 VL with Q24R, E27Q, E50K
B19: H19/L0 (antibody, human IgG1, kappa, V domains shown)
VH: B2 VH with K43Q
VL: B2 VL with Q24R, E27Q
B20: H9/L27 (antibody, human IgG1, kappa, V domains shown)
VH: B2 VH
VL: B2 VL with Q24R, E27R
B21: H21/L0 (antibody, human IgG1, kappa, V domains shown)
VH: B2 VH with S61E
VL: B2 VL with Q24R, E27Q
B22: H26/L12 (antibody, human IgG1, kappa)
heavy: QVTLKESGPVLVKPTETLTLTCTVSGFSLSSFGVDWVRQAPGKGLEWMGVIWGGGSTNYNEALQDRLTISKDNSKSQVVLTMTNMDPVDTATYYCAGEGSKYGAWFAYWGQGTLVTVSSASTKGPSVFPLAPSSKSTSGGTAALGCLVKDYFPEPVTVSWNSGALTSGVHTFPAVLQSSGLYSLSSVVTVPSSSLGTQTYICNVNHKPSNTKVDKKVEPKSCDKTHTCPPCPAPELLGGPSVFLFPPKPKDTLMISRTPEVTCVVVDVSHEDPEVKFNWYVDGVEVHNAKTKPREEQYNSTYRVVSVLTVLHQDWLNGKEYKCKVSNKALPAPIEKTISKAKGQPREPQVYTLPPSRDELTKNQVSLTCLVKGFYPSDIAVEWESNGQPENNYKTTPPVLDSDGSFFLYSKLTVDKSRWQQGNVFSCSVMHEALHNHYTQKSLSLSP
light: B1 light with K47E, L109V, K112E
B23: H9/L10 (antibody, human IgG1, kappa)
heavy: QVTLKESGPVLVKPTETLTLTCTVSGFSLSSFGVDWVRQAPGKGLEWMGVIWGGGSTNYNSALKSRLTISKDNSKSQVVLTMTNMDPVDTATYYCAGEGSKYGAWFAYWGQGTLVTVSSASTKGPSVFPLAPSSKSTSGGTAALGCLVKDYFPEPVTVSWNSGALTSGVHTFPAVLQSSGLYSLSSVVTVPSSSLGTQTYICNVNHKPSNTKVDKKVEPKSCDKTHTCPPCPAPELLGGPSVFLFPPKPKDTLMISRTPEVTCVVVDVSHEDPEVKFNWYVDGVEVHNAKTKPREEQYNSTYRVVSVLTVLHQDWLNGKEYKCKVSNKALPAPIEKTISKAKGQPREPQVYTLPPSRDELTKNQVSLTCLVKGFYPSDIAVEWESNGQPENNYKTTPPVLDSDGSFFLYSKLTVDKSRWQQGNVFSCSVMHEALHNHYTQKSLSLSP
light: B1 light with Q24R, L109V, K112E
B24: H28/L0 (antibody, human IgG1, kappa, V domains shown)
VH: B2 VH with S61E, A62E, K64Q, S65D
VL: B2 VL with Q24R, E27Q
B25: H9/L35 (antibody, human IgG1, kappa)
heavy: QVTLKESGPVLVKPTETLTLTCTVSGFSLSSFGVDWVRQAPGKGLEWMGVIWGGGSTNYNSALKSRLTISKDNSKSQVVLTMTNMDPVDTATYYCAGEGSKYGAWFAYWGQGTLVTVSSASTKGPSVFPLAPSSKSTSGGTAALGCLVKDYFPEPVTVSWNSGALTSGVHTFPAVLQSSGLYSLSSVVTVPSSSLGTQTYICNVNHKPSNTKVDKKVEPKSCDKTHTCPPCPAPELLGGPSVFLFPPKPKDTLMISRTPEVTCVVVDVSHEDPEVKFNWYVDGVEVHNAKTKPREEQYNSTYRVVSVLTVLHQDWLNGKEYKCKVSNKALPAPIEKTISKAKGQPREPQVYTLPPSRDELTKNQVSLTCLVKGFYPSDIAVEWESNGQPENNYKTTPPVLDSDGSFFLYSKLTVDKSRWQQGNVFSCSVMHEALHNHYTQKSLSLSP
light: B1 light with Q24R, Q27R, E50K, Q105R
B26: H25/L0 (antibody, human IgG1, kappa, V domains shown)
VH: B2 VH with K64Q, S65D
VL: B2 VL with Q24R, E27Q
B27: H9/L13 (antibody, human IgG1, kappa, V domains shown)
VH: B2 VH
VL: B2 VL with E27Q, K47Q, L109V, K112E
B28: H9/L12 (antibody, human IgG1, kappa, V domains shown)
VH: B2 VH
VL: B2 VL with E27Q, K47E, L109V, K112E
B29: H26/L0 (antibody, human IgG1, kappa)
heavy: not shown
light: B1 light with Q24R
B30: H24/L0 (antibody, human IgG1, kappa, V domains shown)
VH: B2 VH with S65D
VL: B2 VL with Q24R, E27Q
B31: H23/L0 (antibody, human IgG1, kappa, V domains shown)
VH: B2 VH with K64Q
VL: B2 VL with Q24R, E27Q
B32: H9/L29 (antibody, human IgG1, kappa)
heavy: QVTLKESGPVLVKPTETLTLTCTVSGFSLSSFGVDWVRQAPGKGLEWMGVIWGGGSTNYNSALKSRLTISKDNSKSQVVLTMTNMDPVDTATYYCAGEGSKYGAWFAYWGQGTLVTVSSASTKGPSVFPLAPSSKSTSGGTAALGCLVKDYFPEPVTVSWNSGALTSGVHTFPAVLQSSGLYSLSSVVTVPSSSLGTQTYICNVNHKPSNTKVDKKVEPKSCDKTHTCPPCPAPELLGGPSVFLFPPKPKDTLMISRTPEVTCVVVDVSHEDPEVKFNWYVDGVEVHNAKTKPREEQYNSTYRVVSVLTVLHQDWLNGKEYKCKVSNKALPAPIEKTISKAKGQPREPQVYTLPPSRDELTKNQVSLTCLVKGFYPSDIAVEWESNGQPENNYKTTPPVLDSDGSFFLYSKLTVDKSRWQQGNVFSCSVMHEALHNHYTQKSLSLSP
light: B1 light with Q24R, Q105R

The binders below were run against T1, Human recombinant AXL-FND1 (GST-FND1), from pET-41b(+) (human, UniProt P30530 225-331) (assay: SPR (Biacore T100): antibody captured on Protein A, GST-FND1 as analyte).
T1 construct: Expressed in E. coli, purified on Glutathione Sepharose; analyte in all Biacore measurements; GST put first by the usual layout of pET-41; not shown: GST-tag of vector pET-41b(+) (Novagen)
T1 sequence (looked up): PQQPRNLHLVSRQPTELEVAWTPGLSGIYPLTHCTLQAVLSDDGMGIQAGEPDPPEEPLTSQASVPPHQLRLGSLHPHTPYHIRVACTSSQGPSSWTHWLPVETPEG
Description: Kinetic analyses of antigen-antibody reactions of humanized AXL antibodies were carried out using Biacore T100 (BIACORE). rec-Protein A (Zymed) (hereinafter, Protein A) was immobilized onto a sensor chip, various antibodies were bound to it, then an antigen as the analyte was flushed to measure the antibody-antigen interaction. Human recombinant AXL-FND1 (prepared in 2-2; hereinafter referred to as GST-FND1) prepared at various concentrations was used as the antigen. From the sensorgrams obtained through the measurements, kinetic parameters, namely binding rate constant kₐ (1/Ms) and dissociation rate constant kd (1/s), were calculated, and Kd (M) was calculated based on these values. Biacore T100 Evaluation Software (BIACORE) was used to calculate each of the parameters.
The sensor chips were produced by immobilizing approximately 3000 RU of Protein A onto CM5 (BIACORE) by amine coupling. Using the produced sensor chip, kinetic analyses were carried out on the interaction between the Protein A-bound antibodies and GST-FND1. HBS-EP+ was used as the running buffer, and the flow rate was set to 30 μL/min. Each antibody was prepared at 1 μg/mL using the running buffer, and was subjected to binding with Protein A for two minutes. GST-FND1 as the analyte was prepared at 0.5 and 2.0 μg/mL using HBS-EP+. Measurements were carried out by first binding the various humanized AXL antibodies, chimeric AXL antibodies, or mouse AXL antibodies of interest to Protein A, then applying an analyte solution to them for a two-minute interaction, and then switching to HBS-EP+ (BIACORE) for a two-minute measurement of the dissociation phase. After completion of measurement of the dissociation phase, 30 μL of 10 mM glycine-HCl (pH 2.0) was used for washing to regenerate the sensor chip. Such binding, dissociation, and regeneration were defined as one cycle of analysis. All experiments were performed at 25° C.
Affinity evaluation of each of the variants by Biacore was carried out by the method of Example 2.

| Kd [nM] | Binder |
| --- | --- |
| 2.49 | B1 |
| 2.97 | B2 |
| 2.5 | B3 |
| 3.03 | B4 |
| 4.31 | B5 |
| 3.54 | B6 |
| 2.53 | B7 |
| 3.21 | B8 |
| 2.46 | B9 |
| 2.8 | B10 |
| 2.69 | B11 |
| 2.71 | B12 |
| 2.4 | B13 |
| 3.46 | B14 |
| 3.14 | B15 |
| 2.38 | B16 |

| Kd [nM] | Binder |
| --- | --- |
| 2.64 | B17 |
| 3.06 | B18 |
| 2.63 | B19 |
| 3.07 | B20 |
| 2.35 | B21 |
| 2.79 | B22 |
| 2.92 | B23 |
| 2.94 | B24 |
| 2.37 | B25 |
| 2.5 | B26 |
| 2.45 | B27 |
| 2.55 | B28 |
| 2.5 | B29 |
| 2.56 | B30 |
| 2.39 | B31 |
| 3.49 | B32 |
